Data from article PMC12447578, “Syndecan-4 interacts directly with β-parvin and regulates the ILK-PINCH-β-parvin complex, the β-parvin-β-PIX-Rac1 axis, and cardiomyocyte geometry in a sex-dependent manner” (Frontiers in Cell and Developmental Biology, 2025).

B1: ILK (S343D): Recombinant mouse 8xHIS-ILK (S343D), custom-made by GenScript (protein)
chain: MDDIFTQCREGNAVAVRLWLDNTENDLNQGDDHGFSPLHWACREGRSAVVEMLIMRGARINVMNRGDDTPLHLAASHGHRDIVQKLLQYKADINAVNEHGNVPLHYACFWGQDQVAEDLVANGALVSICNKYGEMPVDKAKAPLRELLRERAEKMGQNLNRIPYKDTFWKGTTRTRPRNGTLNKHSGIDFKQLNFLAKLNENHSGELWKGRWQGNDIVVKVLKVRDWSTRKSRDFNEECPRLRIFSHPNVLPVLGACQAPPAPHPTLITHWMPYGSLYNVLHEGTNFVVDQSQAVKFALDMARGMAFLHTLEPLIPRHALNSRSVMIDEDMTARISMADVKFDFQCPGRMYAPAWVAPEALQKKPEDTNRRSADMWSFAVLLWELVTREVPFADLSNMEIGMKVALEGLRPTIPPGISPHVCKLMKICMNEDPAKRPKFDMIVPILEKMQDK
modifications: left off: 8xHIS, end not stated, state not stated
notes: Recombinant mouse 8xHIS-ILK (S343D), custom-made by GenScript

Columns and labels:
[1] = target: Biotin-ahx-SDC4cyt (human, rat and mouse (identical)); assay: SPR; Biacore X100; biotin-ahx-SDC4cyt immobilised on SA chip at 100-200 RU; parvin as analyte 26.5-277.7 nM in Hepes pH 7.4, 150 mM NaCl, 3 mM EDTA, 0.005% Surfactant P20; 30 µL/min, 180 s association, 600 s dissociation; 1:1 Langmuir model
[2] = system: FL β-parvin 20′mer overlapping peptides; assay: Peptide overlay: 20-mer β-parvin peptides overlaid with recombinant ILK (S343D); format: binding, rat; conditions: peptide array, O/N, 4°C, ILK antibodies, n = 4 membranes
Text: Full-length (FL) recombinant human C-Myc/DDK-β-parvin was obtained from OriGene (TP308490, Rockville, MD, United States). Recombinant rat 8xHIS-β-parvin (85% purity), rat 8xHIS-α-parvin (85% purity), and mouse 8xHIS-ILK (S343D) (75% purity) were custom-made by GenScript.
The cytoplasmic tail of syndecan-4 (mouse) or FL β-parvin (rat) protein was synthesized as 20′mer overlapping peptides with 3 amino acids offset onto a cellulose membrane by a Multipep automated peptide synthesizer (CEM Corporation, Matthews, NC, United States) ([Frank and Overwin, 1996]). After membrane blocking, antibodies, or a solution with recombinant protein or biotin-ahx-SDC4 were added and incubated O/N at 4°C. Membranes were developed as described for immunoblotting.

Biotin-ahx-SDC4cyt (human, rat and mouse (identical)), sequence (P31431 171-198): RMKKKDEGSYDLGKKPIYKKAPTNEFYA

Molecule	Kd [1]	koff [1]	kon [1]	ILK binding site in β-parvin (CH2 domain) [2]
Recombinant rat 8xHIS-β-parvin (natural protein)	11.1 nM	8.6e-05 s⁻¹	10000 M⁻¹ s⁻¹	
B1				bound a few amino acids upstream of the syndecan-4 core binding site
